Measured values: article doi:10.1101/2020.03.02.972281 (bioRxiv, 2020)

Tests used:
[1] = target: T1, transferrin (human, UniProt P02787 20-698); assay: SPR
[2] = target: T1, transferrin; assay: native gel or EMSA

T1 sequence (P02787 20-698): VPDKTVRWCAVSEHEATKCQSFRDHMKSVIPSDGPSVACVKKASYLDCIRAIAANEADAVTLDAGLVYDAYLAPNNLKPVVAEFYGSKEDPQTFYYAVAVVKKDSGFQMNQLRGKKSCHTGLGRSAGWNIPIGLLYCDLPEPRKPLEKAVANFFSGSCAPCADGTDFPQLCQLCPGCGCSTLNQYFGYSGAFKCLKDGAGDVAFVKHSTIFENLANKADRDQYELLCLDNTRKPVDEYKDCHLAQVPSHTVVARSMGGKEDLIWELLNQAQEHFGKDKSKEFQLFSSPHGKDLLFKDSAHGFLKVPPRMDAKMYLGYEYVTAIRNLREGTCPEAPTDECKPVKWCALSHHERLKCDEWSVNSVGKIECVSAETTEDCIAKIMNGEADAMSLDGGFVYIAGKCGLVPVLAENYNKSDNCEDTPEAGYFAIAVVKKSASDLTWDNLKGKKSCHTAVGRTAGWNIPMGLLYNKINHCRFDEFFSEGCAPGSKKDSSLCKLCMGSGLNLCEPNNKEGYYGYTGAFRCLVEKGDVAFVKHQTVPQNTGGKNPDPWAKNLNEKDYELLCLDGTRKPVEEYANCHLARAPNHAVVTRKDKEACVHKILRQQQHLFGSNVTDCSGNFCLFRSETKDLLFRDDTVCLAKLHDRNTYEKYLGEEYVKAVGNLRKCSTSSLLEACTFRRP

CD14 (SEA518Mu-48T, Uscn) (from UniProt P08571 20-345) (natural protein)
Kd [1]: 14 nM
koff [1]: 0.00033 s⁻¹
kon [1]: 24000 M⁻¹ s⁻¹

B1: human CD14 (natural protein, UniProt P08571 20-345, looked up)
chain: TTPEPCELDDEDFRCVCNFSEPQPDWSEAFQCVSAVEVEIHAGGLNLEPFLKRVDADADPRQYADTVKALRVRRLTVGAAQVPAQLLVGALRVLAYSRLKELTLEDLKITGTMPPLPLEATGLALSSLRLRNVSWATGRSWLAELQQWLKPGLKVLSIAQAHSPAFSCEQVRAFPALTSLDLSDNPGLGERGLMAALCPHKFPAIQNLALRNTGMETPTGVCAALAAAGVQPHSLDLSHNSLRATVNPSAPRCMWSSALNSLNLSFAGLEQVPKGLPAKLRVLDLSCNRLNRAPQPDELPEVDNLTLDGNPFLVPGTALPHEGSMN
binding result [2]: binds

ELDDEDFRCVCNFSEPQPDWSEAFQCVSAVEVEIHAGGLN [LPS binding region of CD14 N-terminus (CD14N)]
binding result [1]: binds
